The DeepSol protein solubility set

Experiment: soluble on expression in E. coli; label from the status in PepcDB or PDB records

Sequence	soluble on expression in E. coli
AHHHHHHGSILLLTGMPGSGKGVVAREFEKRGIPVVSMGDAIREEAEKRGIPKTPEGLKEVSLKVREELGPGAVAILTVPKVRKLLELNPVVVVEGVRSPYEVEEFRKEFKNEEIKVVAIHSSPKSRFQRLLKRQRSDDPKTWEEFVERDRKELNFGIGEVIALADYIIVNECGFDQLKANIEKLISMIFDGKI	soluble
MNISYIPEHIEQLTIMNVPEYYKINDNHAFIVRSKAETDFWLKTHYGFEVMNGHVFYNEMMTDFQAEVQLRMNPNSKFDQAGLFVMISENCWLKTSLEYIPEGPSHLGAVVTNNGYSDWSTQDYPTEAAKQQLRFRIIRKRGDYTIYVKKRHQWEQIRIAHLMEDIGNEPIKIGFYTCSPSKNKGFETEFLHFTIEELLEHHHHHH	soluble
MGSDKIHHHHHHMHIADITMFYAPASGGVRTYLEAKRNRLAKLPGVTSSLLVPGAYHRSHGSIHEVPAPPLPFSQGYRFPLKRRGWQRELHRLAPDLIEAGDPYVTAWAALDAGRALDVPVVGFYHSDLPRLIGNRLGNWTRAALDRYVRNLYGHCDRVLAPSRVIADRLQTLGLDNVAVQPLGVDLTTFSPQRRQFAFRQRLGLDDDTRLLIFVGRGSREKNLSVLLDTARHLGKGYHLVLIGPQMPQRVPDNVSVIGRYTATADVADWLASSDILLHAGTQETFGLVALEAMASGIPVVAARAGALAENVPLGCGRLCEPHSAQDMARAVRELCADAPEEQGRRARQHVERHHDWDIVVSSLMHHYRELTGQRVNTESLQHG	not soluble
MAHHHHHHMSLLRMCYRSIDITVKSRHARTFLKKRLMEQWAAKCKEPNPEKQRFYMDLAGSFLQALHTERNPKPGKVVNFQLSRQVAYEQKLADREKSAGARRVRRMSKEVKTQDH	not soluble
TPAGSFGLEFSFSYQKFTASFQPNYRRQTYSYSNTYEWHDANNVQNYLQLTYNQKTQLDYIEFPLFIRYDIISGAFKPFVQAGFYYAILNSATKQLNIEGVDHSGGTSRSFTEPVTIIGADDLFINSSIGAALGLGTSYKVGNIRLILDATYRMGLNNISNVQNRYISNSLSGAGDVSDDLKLNNITFSFGCLFPMKFLISPSHKAVD	not soluble
AHHHHHHGSLVITPRRLHLGIIDPTGSLGRRFGSLGVALEGGYEIRITPADSLKIEAEKEDKETIKETIEKLNFEYDTGFGFYIEVRKSIPRHIGLGSTTQLTLGIAMGILKLLHKDVPVEEVAKILGRGKNSGVGIYAFKYGGFVVDGGVKDSVPPLLVRKDFPEDWAFLLVIPQVKRGFDEKEEQKIMEKPFGSASIAKEISYRILLGLLPALAEKNIEEFGRYLSTIQTLVGSSFSDFQGGEFREDIRLIVEFLNEITYGAGQSSWGPTVYGLIKRAEYQRVASRVAEFLDEQGIKAKIELGIPRNRGAEVKGESLFLERLIKSVSQ	soluble
MASTANMISQLKKLSIAEPAVAKDSHPDVNIVDLMRNYISQELSKISGVDSSLIFPALEWTNTMERGDLLIPIPRLRIKGANPKDLAVQWAEKFPCGDFLEKVEANGPFIQFFFNPQFLAKLVIPDILTRKEDYGSCKLVENKKVIIEFSSPNIAKPFHAGHLRSTIIGGFLANLYEKLGWEVIRMNYLGDWGKQFGLLAVGFERYGNEEALVKDPIHHLFDVYVRINKDIEEEGDSIPLEQSTNGKAREYFKRMEDGDEEALKIWKRFREFSIEKYIDTYARLNIKYDVYSGESQVSKESMLKAIDLFKEKGLTHEDKGAVLIDLTKFNKKLGKAIVQKSDGTTLYLTRDVGAAMDRYEKYHFDKMIYVIASQQDLHAAQFFEILKQMGFEWAKDLQHVNFGMVQGMSTRKGTVVFLDNILEETKEKMHEVMKKNENKYAQIEHPEEVADLVGISAVMIQDMQGKRINNYEFKWERMLSFEGDTGPYLQYAHSRLRSVERNASGITQEKWINADFSLLKEPAAKLLIRLLGQYPDVLRNAIKTHEPTTVVTYLFKLTHQVSSCYDVLWVAGQTEELATARLALYGAARQVLYNGMRLLGLTPVERM	soluble
MKYFAYGSNMSLLRLKERVPSSKKLGIVTLKKHQLRFNMSGDDDSGKCDSFETNNHEDIVIGALFEIDENEKDALDRAESLGDGYDEKFVFVQSNSGEVFEALTYYAIKIDASLQPYSWYLNHVIIGAKETKLPTDYLAIIESVECIEDPDTSRDAKQRAMYVLEHHHHHH	not soluble
MHVMIFGAGYSGKAIANALKTKAASVCGTTRSADKFANLAAAGMTPLLFDGVHLDDDLIAAMRNVTHLVQSIAPGKDGDPLFALLGGDLKKLLPNLKWLAYLSTVGVYGDHHGAWVNETTPCRPVSARSVERVAAEAAWTEAAQSADVPLSILRLSGIYGPGRNTFMNFEKGTARRLVKKDQVFNRIRVEDIGAAIAFLALKNERGIFNVTDDEPCPPQDVVSFAADLMGVVPPAEQDFGTADLTPMARSFYGENKRVSNAKIRELGFDFRFPEYRQSLKQLWESSLWRG	not soluble
EFPEITEEMEKEIKNVFRNGNQDEVLSEAFRLTITRKDIQTLNHLNWLNDEIINFYMNMLMERSKEKGLPSVHAFNTFFFTKLKTAGYQAVKRWTKKVDVFSVDILLVPIHLGVHWCLAVVDFRKKNITYYDSMGGINNEACRILLQYLKQESIDKKRKEFDTNGWQLFSKKSQEIPQQMNGSDCGMFACKYADCITKDRPINFTQQHMPYFRKRMVWEILHRKLL	soluble
MGSDKIHHHHHHMAEFFPEIPKIQFEGKESTNPLAFRFYDPNEVIDGKPLKDHLKFSVAFWHTFVNEGRDPFGDPTAERPWNRFSDPMDKAFARVDALFEFCEKLNIEYFCFHDRDIAPEGKTLRETNKILDKVVERIKERMKDSNVKLLWGTANLFSHPRYMHGAATTCSADVFAYAAAQVKKALEITKELGGEGYVFWGGREGYETLLNTDLGLELENLARFLRMAVEYAKKIGFTGQFLIEPKPKEPTKHQYDFDVATAYAFLKNHGLDEYFKFNIEANHATLAGHTFQHELRMARILGKLGSIDANQGDLLLGWDTDQFPTNIYDTTLAMYEVIKAGGFTKGGLNFDAKVRRASYKVEDLFIGHIAGMDTFALGFKIAYKLAKDGVFDKFIEEKYRSFKEGIGKEIVEGKTDFEKLEEYIIDKEDIELPSGKQEYLESLLNSYIVKTIAELR	not soluble
MGSDKIHHHHHHMKKVERINTIMRYINNRSHFTISEIIREFNISRSTAIRDIREIEAMGMPLVAEVGRSGGYFVMHNSILPVVRFTDNEVKALFIAFMATRNQQLPYLKSRQSLAEKLLGLISETQQDDLVLLNQLLLFEGTNPHNPDLLELSDLPHPMLEKLIQILLLDRYLLITVKEEIKSYPIYLLHLYKEKSYWIIEGFDLKEEKKLMFPVDDLINIEPYTPKKRLHKKQILERLSKKDEAINLVFELGPKAIAQFKKYHPFKVSISYTNPYQSTAILKTFIDVHNSDEVTEMTNWLLFLGKDITIKEMPEEVLKDLQERLCLYTP	not soluble
MSLSIPERKEFTKLYDVYDEITSKYYKDTNSTTMIDGAISGMVNSLDDPYSTFMSKKESSEFNDTISASFEGIGAEIQEKDGAIVIVSPIKNSPAEKAGLRPQDIITQVDGKSVKGDTATEATQKIRGEKGTKVTLTIQRSNEDKPFDVTITRDEIPIETVYKEMGSDKIAHVTISTFSETTYDELEKALKSLEKDGMKGLVLDLRGNPGGLLDQAVSISSLFVPDGKIVVQEQDKDGDKSAIKADSSSHGDYKVKVPTTMLIDGGSASASEILAAAAKESGGIKLVGTKSFGKGTVQTATTLSDDSTLKLTVAKWLTPNSEWIHEKGITPDVVVNMPDYATMTIPSSTKVYKNGDFGDDVKTIETLLKALDYNVGKVDGLYDTDTEYAVQRFQTANKLDVTGIMTGVTTDKLVELTQKHLKETDPQLQKAKALVKEGHHHHHH	soluble
MAHHHHHHMPGPGLLADGWFREENGQWPGQAMSFKVEEVLHDTPTKFQHLSIFETDPKGPWGTVMTLDGCIQLTDFDEFVYHEMLSHTPLCAHPDPVDVLIIGGGDGGVMREVLRHGTVKRCVLVDIDGDVIEASKKYFPQISSGFSDPRADVRVGDGVAFVREAASESFDVVIIDTTDPDGPAAELFGEKFYRDVLRILKPRGICCNQGESVWLNRNLIEGMADFIKNKVGFASVKYAMIYTPTYPCGSIGSLICSKVAGVDVTQPVRPVESMPFAGELKYYDSDVHKAAFVLPRFARHLNQNYS	soluble
